B1: CSPαJ: J-domain (residues 1–100) of human CSPα (protein, UniProt Q9H3Z4 1-100, looked up, fragment)
chain: MADQRQRSLSTSGESLYHVLGLDKNATSDDIKKSYRKLALKYHPDKNPDNPEAADKFKEINNAHAILTDATKRNIYDKYGSLGLYVAEQFGEENVNTYFV
modifications: J-domain
notes: J-domain (residues 1–100) of human CSPα
B2: Apg2: nucleotide exchange factor, member of the Hsp110 family (protein, UniProt P34932 1-840, looked up)
Heat shock 70 kDa protein 4: MSVVGIDLGFQSCYVAVARAGGIETIANEYSDRCTPACISFGPKNRSIGAAAKSQVISNAKNTVQGFKRFHGRAFSDPFVEAEKSNLAYDIVQLPTGLTGIKVTYMEEERNFTTEQVTAMLLSKLKETAESVLKKPVVDCVVSVPCFYTDAERRSVMDATQIAGLNCLRLMNETTAVALAYGIYKQDLPALEEKPRNVVFVDMGHSAYQVSVCAFNRGKLKVLATAFDTTLGGRKFDEVLVNHFCEEFGKKYKLDIKSKIRALLRLSQECEKLKKLMSANASDLPLSIECFMNDVDVSGTMNRGKFLEMCNDLLARVEPPLRSVLEQTKLKKEDIYAVEIVGGATRIPAVKEKISKFFGKELSTTLNADEAVTRGCALQCAILSPAFKVREFSITDVVPYPISLRWNSPAEEGSSDCEVFSKNHAAPFSKVLTFYRKEPFTLEAYYSSPQDLPYPDPAIAQFSVQKVTPQSDGSSSKVKVKVRVNVHGIFSVSSASLVEVHKSEENEEPMETDQNAKEEEKMQVDQEEPHVEEQQQQTPAENKAESEEMETSQAGSKDKKMDQPPQAKKAKVKTSTVDLPIENQLLWQIDREMLNLYIENEGKMIMQDKLEKERNDAKNAVEEYVYEMRDKLSGEYEKFVSEDDRNSFTLKLEDTENWLYEDGEDQPKQVYVDKLAELKNLGQPIKIRFQESEERPKLFEELGKQIQQYMKIISSFKNKEDQYDHLDAADMTKVEKSTNEAMEWMNNKLNLQNKQSLTMDPVVKSKEIEAKIKELTSTCSPIISKPKPKVEPPKEEQKNAEQNGPVDGQGDNPGPQAAEQGTDTAVPSDSDKKLPEMDID

Legend:
Hsc70 [1] = biological target: T1, Hsc70 (Homo sapiens, UniProt P11142); assay: SNAP-25 cellulose-bound peptide array probed with Hsc70; assay type: binding; details: Hsc70 with CSPαJ vs Hsc70 alone
T1 construct: 6X His-tag (TEV-cleavable) (cleaved yes); made in house; host or cells: E. coli Rosetta (DE3)
Description: To explore in greater depth the binding sites for Hsc70 in SNAP-25, we screened a cellulose-bound peptide array spanning the full SNAP-25 sequence with 13-residue long peptides, overlapping by ten residues, and probed with Hsc70 in the presence of a two-fold excess of ATP and ten-fold excess of ADP. The binding of Hsc70 to sites in the array was then visualized with an anti-Hsc70 primary antibody and a horse radish peroxidase-tagged secondary antibody to enable visualization by chemiluminescence (Fig. 4A). To quantitatively analyze the array, we used ImageJ (https://imagej.net/ij/) and plotted the intensity under the area for each spot. […] One site is located in the SNN, one in the LOOP, and one in the LOOP-SNC region (called SNC site) (Fig. 4A) […] (Fig. 1C). […] The binding site in the LOOP region is very close to the cysteine residues that become palmitoylated as SNAP-25 moves to its membrane-localized state. It is formally possible that Hsc70 binds to SNAP-25 in the initial un-palmitoylated state and dissociates upon palmitoylation and association with the plasma membrane. […]
B, quantification of the spots from Figure 4A using ImageJ (Hsc70 (gray) and Hsc70-CSPαJ (dark gray)). […]
A peptide array of SNAP-25 was obtained from CEM corporation. […] The chemiluminescence was captured in a G-box (Syngene), and the images were analyzed using ImageJ.

Hsc70 [2] = biological target: T1, Hsc70; assay: ATPase activity of Hsc70 (malachite green); assay type: biochemical; details: for ATPase activity of co-chaperone alone: baseline, protein alone without Hsc70
Description: Hsp70s consist of an nucleotide-binding domain (NBD) and a substrate-binding domain (SBD). Hsc70 works using an allosteric mechanism whereby substrate binding at the SBD stimulates the ATP hydrolysis rate at the nucleotide-binding domain. The basal ATPase rate of Hsp70 is low, usually about 0.05 ± 0.009 mol Pi/mol protein, and increases when it is stimulated by binding of a peptide to the canonical site in the SBD. We measured the ability of SNAP-25 peptides SNNP and SNCP to stimulate the ATPase rate of Hsc70 (Fig. 5A). SNNP and SNCP binding cause a 1.5-fold increase of the Hsc70 ATPase rate over basal (observed rates upon addition of SNNP and SNCP were 0.089 ± 0.008 and 0.080 ± 0.005, respectively). In order to confirm that peptides are indeed binding at the canonical binding site of Hsc70, we used the V438F mutant that blocks the binding site ([37]). […] The addition of CSPαJ stimulates the ATPase activity of Hsc70 ∼4-fold with and without peptides.
Figure 5 SNN and SNC peptides interact with the canonical substrate-binding site of Hsc70.A, ATPase activity of Hsc70 (2 μM) in the absence (gray) and presence of 200 μM SNNP (orange) and SNCP (green) peptides. Error bars represent the SDs from three independent experiments. B, binding of SNAP-25 (black), SNNP (orange), LoopP (blue), and SNCP (green) peptides to Hsc70 followed by competition for FITC-p5 peptide using fluorescence anisotropy. Increasing concentrations of the competitors were added to a complex of Hsc70 (5 μM) and FITC-p5 peptide (50 nM). Error bars represent SDs from three independent experiments. C, structure of the canonical substrate-binding site of human HspA1 (PDB 4po2) illustrating the location of Hsc70 residues Ile 403 and Ile 440 in red and green spheres, respectively (N.B., Hsc70 and HspA1 share […] sequence identity). The SBD is shown in gray, bound substrate in cyan sticks, and the side chain of the residue occupying the 0th position in the chaperone (“anchor residue”) in orange ball and sticks. For better visualization of the substrate-binding site, residues 512 to 613, 405 to 408, and 431 were removed in this illustration of the structure. […]
We performed ATPase assays to observe the activity of Hsc70 in the presence of SNAP25 peptides. […] Absorbance readings were taken at 620 nm using a BioTek plate reader. […]
(C) ATPase activity of Hsc70 (at 2 μM) in the absence (grey) and presence of 200 μM SNNP (orange) and L(Loop)-SNCP (green) peptides, and in the absence and presence of CSPa-J and CSPa-J/Apg2. The statistical significance was calculated using one-way ANOVA test with Sidak’s multiple comparison and the Hsc70 ATPase activity […]

SNAP-25 = SNAP-25 aggregation kinetics by optical density; assay type: biochemical; details: SNAP-25 50 μM
Description: (§1) To test our hypothesis that Hsc70 inhibits SNAP-25 aggregation, we monitored the aggregation kinetics of recombinantly expressed SNAP-25 in the absence and presence of Hsc70 by following optical density at 360 nm (Fig. 2). […] This lag time was elongated to ∼65 h in the presence of Hsc70. In neurons, Hsc70 works in collaboration with its co-chaperone CSPα. […] (Fig. S2A). Apg2 is a member of the Hsp110 family, which is known to suppress protein aggregation ([36]). […] (Fig. S2B).
(§2) Figure 2 Hsc70 delays the aggregation of SNAP-25. Aggregation kinetics of SNAP-25 (50 μM) at 37 °C. Optical density of SNAP-25 was recorded at 360 nm in the absence (black) and in the presence of Hsc70 (5 μM, red), and Hsc70+CSPαJ (5 μM each, blue).
(§3) Aggregation of SNAP-25 at 50 μM was followed by measuring the A360 in a 96-well plate using a BioTek plate reader (BioTek), at 37 °C with shaking at 300 rpm, in the absence and presence of Hsc70 and CSPαJ at 5 μM each, and Apg2 at 0.5 μM. The aggregation buffer included 20 mM phosphate buffer pH 7.4, 100 μM MgCl2, and 100 mM KCl, and an ATP-experiment was carried out using regeneration system (5 mM 2-phosphoenolpyruvate, 0.05 mg/ml pyruvate kinase, and 5 mM ATP), as described previously ([51]).
(§4) Figure SI 2. Apg2 enhances the effect of Hsc70 on SNAP-25. (A) Aggregation kinetics of SNAP-25 (50 μM) at 37 °C. OD600 of SNAP-25 was recorded in the absence (black) and in the presence of Hsc70, Hsc70+CSPa-J (blue) and Hsc70+CSPa-J+Apg2 (turquoise). […]
(§5) concentrations are SNAP-25 (50 μM), Hsc70 (5 μM), CSPa-J (5 μM) and Apg2 (0.5 μM).
(§6) (B) Aggregation kinetics of SNAP-25 (50 μM) at 37 °C. OD600 of SNAP-25 was recorded in the absence (black) and in the presence of Apg2 (blue). […]

[3] = SNAP-25 aggregation kinetics by optical density; assay type: biochemical; details: without SNAP-25, 37 °C
Description: as §1, §2, §3, §4, §5, §6

[4] = OD600 (Fig. S2A), Hsc70 5 μM, CSPa-J 5 μM, Apg2 0.5 μM

T1 sequence (P11142 whole entry): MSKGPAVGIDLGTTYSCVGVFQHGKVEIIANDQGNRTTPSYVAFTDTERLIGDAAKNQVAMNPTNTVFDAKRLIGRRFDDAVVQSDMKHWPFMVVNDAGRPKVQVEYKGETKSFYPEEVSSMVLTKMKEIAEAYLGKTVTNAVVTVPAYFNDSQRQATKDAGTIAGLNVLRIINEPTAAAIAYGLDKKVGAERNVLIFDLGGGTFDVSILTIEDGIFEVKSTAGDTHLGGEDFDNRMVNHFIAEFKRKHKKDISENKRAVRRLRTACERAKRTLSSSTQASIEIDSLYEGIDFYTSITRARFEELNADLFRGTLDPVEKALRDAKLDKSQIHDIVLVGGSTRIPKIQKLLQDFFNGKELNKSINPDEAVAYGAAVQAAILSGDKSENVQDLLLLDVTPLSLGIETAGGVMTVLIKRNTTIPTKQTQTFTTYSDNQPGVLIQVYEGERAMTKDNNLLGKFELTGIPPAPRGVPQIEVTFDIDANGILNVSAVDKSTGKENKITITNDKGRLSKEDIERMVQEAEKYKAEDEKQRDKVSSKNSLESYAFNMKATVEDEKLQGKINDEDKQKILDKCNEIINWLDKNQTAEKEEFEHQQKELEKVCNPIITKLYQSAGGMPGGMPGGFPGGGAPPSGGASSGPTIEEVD

Row | Molecule | effect of CSPαJ on specificity of Hsc70 binding to SNAP-25 array (Hsc70 [1]) | stimulation of Hsc70 ATPase activity by CSPαJ (Hsc70 [2]; Hsc70 2 μM, with and without peptides) | ATPase activity of co-chaperone alone (Hsc70 [2]) | effect of CSPαJ on lag time of SNAP-25 aggregation with Hsc70 (SNAP-25; Hsc70 and CSPαJ 5 μM each, 37 °C, OD 360 nm) | aggregation of the chaperone alone ([3]; OD 360 nm (Fig. 2)) | aggregation of the chaperone alone [3, 4] | effect of Apg2 on Hsc70 ATPase activity (Hsc70 [2]; Hsc70 2 μM with CSPαJ, with Apg2 (Fig. S2C)) | effect of Apg2 alone on SNAP-25 aggregation (SNAP-25; Apg2 without Hsc70/CSPαJ, 37 °C (Fig. S2B)) | effect of Apg2 on SNAP-25 aggregation kinetics with Hsc70-CSPαJ (SNAP-25; Hsc70 5 μM, CSPαJ 5 μM, Apg2 0.5 μM, 37 °C (Fig. S2A))
1 | B1 | does not change the specificity of Hsc70 binding to SNAP-25 | ~4 fold | no ATPase activity | elongates the lag time of SNAP-25 aggregation | no aggregation | exhibit no aggregation |  |  | 
2 | B2 |  |  | no ATPase activity |  |  | exhibit no aggregation | not further increased | no significant effect | further elongated

From article PMC11697113, “The Hsc70 system maintains the synaptic SNARE protein SNAP-25 in an assembly-competent state and delays its aggregation [drawing 1]” (The Journal of Biological Chemistry, 2024)
